Test results from patent US5726017.

Experiments:
[1] = target: GST-gag (HIV-1 gag polyprotein, strain LAI) (HIV-1 (LAI)) (UniProt P03348); experiment: filter; conditions: for Kd: 5 mM MgCl2, 37 C
[2] = target: GST-gag (HIV-1 gag polyprotein, strain LAI) (HIV-1 (LAI)) (UniProt P03348); experiment: competition; conditions: 1 nM gag, scale: fold excess unlabeled Psi for 50% competition
[3] = tested on: glutathione S-transferase (GST); experiment: filter; conditions: GST alone, low affinity
[4] = 50 mM Tris pH 7.5, 140 mM KCl, 5 mM NaCl

For “GGGAAAAGCGAAUCAUACACAAGANNNNNNNNNNNNNNNNNNNNNNNNNNNNNNNNNNNNNNNNNNNNNNNNNNGCUCCGCCAGAGACCAACCGAGAA [SELEX B round 0 RNA pool]”, the Kd [1, 4] was 1000 nM.

“GGGAAAAGCGAAUCAUACACAAGANNNNNNNNNNNNNNNNNNNNNNNNNNNNNNNNNNNNNNNNNNNNNNNNNNGCUCCGCCAGAGACCAACCGAGAA [SELEX B round 4 RNA pool]” gave a Kd [1, 4] of 8.5 nM and a fold excess of unlabeled Psi for 50% competition ([2]; 150 pM labeled pool) of 74.

“GGGAAAAGCGAAUCAUACACAAGANNNNNNNNNNNNNNNNNNNNNNNNNNNNNNNNNNNNNNNNNNNNNNNNNNGCUCCGCCAGAGACCAACCGAGAA [SELEX B round 8 RNA pool]” showed a Kd [1, 4] of 1.1 nM and a fold excess of unlabeled Psi for 50% competition ([2]; 150 pM labeled pool) of 630.

Work on “GGGAGACAAGAAUAAACGCUCAANNNNNNNNNNNNNNNNNNNNNNNNNNNNNNNNNNNNNNNNNNNNNNNNNNUUCGACAGGAGGCUCACAACAGGC [SELEX A round 0 RNA pool]” yielded a binding signal (% bound at 10 nM gag) ([1]; 4.0% at 0.1 nM, 6.0% without gag, negative control) of 3.5.

“GGGAGACAAGAAUAAACGCUCAANNNNNNNNNNNNNNNNNNNNNNNNNNNNNNNNNNNNNNNNNNNNNNNNNNUUCGACAGGAGGCUCACAACAGGC [SELEX A round 10 RNA pool]” gave a Kd ([1]; 50 mM Tris pH 7.5, 200 mM KOAc, 10000-fold tRNA) of 1.5 nM.

In the case of “GGGAGACAAGAAUAAACGCUCAAUCUCGUAUCAGCACACCGGUACAAAGAGGAUGCAAAUNCGCCUGUGACUUCGACAGGAGGCUCACAACAGGC [SW10.12]”, the binding signal (% bound at 10 nM gag) ([1]; 0.6% at 0.1 nM, 0.6% without gag) is reported as 11.2.

For “HIV-1 Psi RNA (456 nt, transcribed from XhoI-linearized pBsPVR789)”, the binding signal (% bound at 10 nM gag) ([1]; 13.4% at 0.1 nM, 14.7% without gag, positive control) was 87, the Kd ([1]; SELEX A experiment, 50 mM Tris pH 7.5, 200 mM KOAc) was 1.1 nM and the Kd ([1]; SELEX B experiment, 50 mM Tris pH 7.5, 140 mM KCl, 5 mM NaCl) was 5.2 nM. For the same substance, the fold excess of unlabeled Psi for 50% competition ([2]; 150 pM labeled Psi) was 20.

random RNA showed a Kd [3] greater than 10000 nM.
